Source: patent publication US20170335314, “Methods For Using Nucleic Acid Aptamers For Directed Templated Assembly” (TriBiotica LLC, published 2017)

How the values were obtained:
[1] = target: T1, streptavidin (magnetic beads) (UniProt P22629 P22629:25-183); assay: pulldown; beads without bFab; settings: tags: immobilised on magnetic beads; chain copies: 4
Protocol: Aptamers were incubated with bFab (2.5-fold molar excess), then bound to SAMBs. Supernatants were taken, and the SAMBs washed 3 times. Bound material was eluted with 0.1 M NaOH, and then precipitated, washed, dried, and reconstituted before loading samples on a denaturing acrylamide gel. […] M is a size marker (top band 60 bases; aptamer bands 85 bases).
To assess binding of 10th-cycle singlet aptamers to the selective agent (the Fab target), direct binding assays were carried out. Here, single-stranded aptamer preparations (self-annealed as usual) were incubated with or without biotinylated Fab fragments in PBSM, followed by adsorption onto streptavidin magnetic beads. After this incubation period, the beads were magnetically separated, and the supernatants retained. After 3 washes of the beads, the bound material was eluted by means of 2×20 second incubations with 100 μl of 0.1 M NaOH, with the eluates immediately precipitated with 0.3 M sodium acetate and 3 volumes of ethanol. Pellets were washed with 70% ethanol, and dried. After reconstitution in 5 μl of TE, 1 μl samples were denatured in formamide and run on 10% urea (denaturing) gels. […]

[2] = target: T1, streptavidin (magnetic beads); assay: pulldown; beads without bFab; settings: tags: immobilised on magnetic beads; chain copies: 4; remark: listed apart in the source
Protocol: Pellets were washed with 70% ethanol, and dried. After reconstitution in 5 μl of TE, 1 μl samples were denatured in formamide and run on 10% urea (denaturing) gels. Results of such an experiment with the candidate singlet aptamers 228/10AptR1 (see, FIG. 27 and FIG. 29) and 229/10AptL3 (see, FIG. 29) and a specific arbitrary unselected control Right-aptamer (#136; sequence corresponds to: GCAAAGACATCTGGA […] AAGGAGACTTAGAGGC (SEQ ID NO:6); where underlining indicates the 40-mer aptamer tract; remaining sequences are primer sites) are shown in FIG. 30. The supernatants from the 228/10AptR1 and 229/10AptL3 binding (but not #136) were depleted only in the presence of biotinylated Fab. Moreover, the eluted material from biotinylated Fab on the streptavidin magnetic beads was highly enriched for aptamer bands only for 228/10AptR1 and 229/10AptL3 (see, FIG. 30).
Despite successful in situ assembly of binary aptamers upon the target to which they were bound (as in Example 1), it could not be assumed that binary aptamers formed in solution would be capable of binding the same targets. This was assessed using the same aptamers as used in direct binding tests (Example 3; 228/10AptR1 and 229/10AptL3), but where the aptamers were initially ligated together by means of the same splint oligonucleotide as used in Example 1. […]

T1 sequence (P22629 25-183, one chain of several): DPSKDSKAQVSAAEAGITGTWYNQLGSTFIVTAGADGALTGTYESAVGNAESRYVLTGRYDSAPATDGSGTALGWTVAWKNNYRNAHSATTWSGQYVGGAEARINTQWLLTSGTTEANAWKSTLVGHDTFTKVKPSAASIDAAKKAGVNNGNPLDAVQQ

Row | Binder | binding result [1] | binding result [2]
1 | aptamer 229 (10AptL3) (ssDNA) DNA: CATCTCCACCTCCATAACCCACGGACGGGCGTCTAGAGAAGTAGGCTGAAATATCGTGGCGAGAACGAGCTGTGTCCTGAAGAAA | no binding | 
2 | binary aptamer 229-228 (ligated, 170 nt) (ssDNA) DNA: CATCTCCACCTCCATAACCCACGGACGGGCGTCTAGAGAAGTAGGCTGAAATATCGTGGCGAGAACGAGCTGTGTCCTGAAGAAAGCAAAGACATCTGGACACGCCACTAAGTGGAGGTGATCTGTACTTCATTTATGAGATCGCGGCGAGGAGAAGGAGACTTAGAGGC |  | no binding
3 | aptamer 228 (10AptR1) (ssDNA) DNA: GCAAAGACATCTGGACACGCCACTAAGTGGAGGTGATCTGTACTTCATTTATGAGATCGCGGCGAGGAGAAGGAGACTTAGAGGC | no binding | 
